Laboratory results published in article PMC11294389.

Assays:
GFP-Atx3 15Q (human) = GFP-Atx3 15Q (human) (UniProt P54252); assay: co-IP; GFP-Trap agarose precipitates GFP-Atx3 from extracts of co-transfected 293T WT cells (1000 µg total protein, 20 µL bead slurry, 4 °C, 1 h); co-precipitated parkin detected by western blot and quantified by densitometry, n = 3
GFP-Atx3 77Q (human) = GFP-Atx3 77Q (human) (UniProt P54252); assay: as above

6xMyc-parkin V380L (from UniProt O60260-1 1-465) (natural protein)
reduction of co-precipitated parkin against parkin WT (GFP-Atx3 15Q (human)): 87% | reduction of co-precipitated parkin against parkin WT (GFP-Atx3 77Q (human)): 62%
